Values joined by “and” are separate entries in the source; they are usually repeats but may differ in a detail not shown here. Equal values may be shown once.
T1: OX40R extracellular and transmembrane domain fused to the intracellular domain of CD40, in 293 cells with an … (UniProt P43489 29-235; P25942 216-277, limits assumed)
T1 sequence (looked up): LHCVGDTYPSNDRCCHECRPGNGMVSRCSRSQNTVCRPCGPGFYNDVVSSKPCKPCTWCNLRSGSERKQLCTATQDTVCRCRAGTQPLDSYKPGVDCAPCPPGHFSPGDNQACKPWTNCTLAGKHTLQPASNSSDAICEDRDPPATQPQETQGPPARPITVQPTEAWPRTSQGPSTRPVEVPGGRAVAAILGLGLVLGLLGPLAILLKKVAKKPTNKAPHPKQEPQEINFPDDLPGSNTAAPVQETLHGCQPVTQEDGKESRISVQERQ

T2: human OX40R-Ig fusion protein (extracellular domain, amino acids 1-220, of human OX40R fused to the constant … (human, UniProt P43489 29-220))
T2 construct: range 1-220; Range 1-220 as printed; also called OX40-Ig; OX40-human IgG1 fusion protein; not shown: constant region of human IgG1
T2 sequence (looked up): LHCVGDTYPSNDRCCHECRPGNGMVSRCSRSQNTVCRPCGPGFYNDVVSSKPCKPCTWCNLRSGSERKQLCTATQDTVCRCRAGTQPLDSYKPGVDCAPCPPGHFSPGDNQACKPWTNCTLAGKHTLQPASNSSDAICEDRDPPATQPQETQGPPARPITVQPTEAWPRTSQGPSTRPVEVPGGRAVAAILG

T3: human OX40R on activated primary human T cells (human, UniProt P43489 29-277)
T3 sequence (looked up): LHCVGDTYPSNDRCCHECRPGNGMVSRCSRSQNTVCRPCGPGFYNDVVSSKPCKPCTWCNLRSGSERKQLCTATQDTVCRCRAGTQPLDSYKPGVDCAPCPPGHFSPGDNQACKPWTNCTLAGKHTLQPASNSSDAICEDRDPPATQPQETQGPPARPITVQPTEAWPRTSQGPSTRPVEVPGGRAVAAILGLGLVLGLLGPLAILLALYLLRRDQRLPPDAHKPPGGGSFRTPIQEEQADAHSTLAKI


Legend:
[1] = target: cynomolgus OX40R on activated cynomolgus monkey T cells / PBMCs (cynomolgus monkey); test: cell-based or functional assay
[2] = target: T1, OX40R extracellular and transmembrane …; test: cell-based or functional assay
[3] = target: T4, CD137-Ig (R&D Systems) (human, UniProt Q07011 24-186); test: ELISA on coated receptor-Ig fusion proteins, against the EC50 on the OX40R fusion protein
T4 construct: extracellular domain; Bought; also called 4-1BB receptor (CD137)
Experimental: (§1) Maxisorb 96-well plates (Nunc, Roskilde, Denmark) were coated with 100 μl of human TNFα receptor family member fusion proteins at 0.25 μg/ml diluted in BupH™ Carbonate buffer, pH 9.4 (Pierce, Rockford, Ill.) and incubated overnight at 4° C. The selectivity receptor fusion proteins tested included CD40-Ig (Alexis Biochemicals, San Diego, Calif.), CD137-Ig (R&D Systems, Minneapolis, Minn.) and CD271-Ig (Alexis Biochemicals, San Diego, Calif.). Also included as the positive control with each assay was the OX40-Ig fusion protein (in-house construct, Bioexpress, 97/2117). Plates were then washed three times with wash buffer containing 0.05% Tween 20 (Sigma, St Louis, Mo.) diluted in PBS and blocked with 300 μl of 0.5% BSA (Sigma, St Louis, Mo.) in PBS (Sigma, St Louis, Mo.) for 1 hour at RT°. Next, the plates were washed and 100 μl/well of anti-human OX40 reactive antibodies were added to the plates at various concentrations and incubated for 1 hour at RT°. Plates were thoroughly washed three times and OX40R antibody binding was detected with a horse radish peroxidase labeled anti-human kappa chain antibody (Bethyl Laboratories, Montgomery, Tex.) at 25 ng/ml for 1 hour at RD°. Plates were then washed three times which was followed by the addition of 100 μl/well of 1-Step Turbo-TMB substrate (Pierce, Rockford, Ill.) for 30 minutes at RT. The reaction was stopped by adding an equal volume of 2M H₂ SO₄. Absorbance was read at 450 nm on a Molecular Devices Spectra Max 340 (Molecular Devices, Sunnyvale, Calif.).

[4] = target: T5, CD40-Ig (Alexis Biochemicals) (human, UniProt P25942 21-193); test: as above
T5 construct: extracellular domain; Bought; also called CD40 receptor
Experimental: as §1

[5] = target: T2, human OX40R-Ig fusion protein …; test: ELISA on coated OX40-Ig fusion protein
[6] = target: T3, human OX40R on activated primary human …; test: cell-based or functional assay

T5 sequence (P25942 21-193): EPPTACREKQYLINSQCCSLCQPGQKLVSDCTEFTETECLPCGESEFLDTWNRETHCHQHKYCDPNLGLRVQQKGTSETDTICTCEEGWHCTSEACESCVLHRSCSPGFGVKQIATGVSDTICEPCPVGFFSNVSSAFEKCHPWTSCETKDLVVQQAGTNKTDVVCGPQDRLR
T4 sequence (Q07011 whole entry, the tested form may be a part): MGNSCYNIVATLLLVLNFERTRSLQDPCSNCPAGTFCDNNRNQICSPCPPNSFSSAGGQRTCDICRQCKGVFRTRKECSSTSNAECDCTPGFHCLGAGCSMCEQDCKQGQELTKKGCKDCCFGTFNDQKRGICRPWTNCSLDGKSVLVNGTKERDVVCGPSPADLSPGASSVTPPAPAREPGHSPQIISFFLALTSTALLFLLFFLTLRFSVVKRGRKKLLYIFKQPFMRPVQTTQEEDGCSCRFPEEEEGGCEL

Row | EC50 of anti-CD3 induced IL-2 production by cynomolgus T cells, donor 2325 [1] [µg/mL] | EC50 of anti-CD3 induced IL-2 production by cynomolgus T cells, donor 32081 [1] [µg/mL] | EC50 of anti-CD3 induced IL-2 production by cynomolgus T cells, donor 32750 [1] [µg/mL] | EC50 of anti-CD3 induced IL-2 production by cynomolgus T cells, donor 32842 [1] [µg/mL] | EC50 of anti-CD3 induced IL-2 production by cynomolgus T cells, donor 33062 [1] [µg/mL] | EC50 of anti-CD3 induced IL-2 production by cynomolgus T cells, donor 33080 [1] [µg/mL] | EC50 of anti-CD3 induced IL-2 production by cynomolgus T cells, donor 33081 [1] [µg/mL] | In vitro stimulation of OX40R+ transfected cells (luciferase) (EC50; N = 4) [2] | fold selectivity for the OX40R over this receptor [3] [fold] | fold selectivity for the OX40R over this receptor [4] [fold] | EC50 [5] | EC50 of anti-CD3 induced IL-2 production by primary human T cells, donor four [6] [µg/mL] | EC50 of anti-CD3 induced IL-2 production by primary human T cells, donor one [6] [µg/mL] | EC50 of anti-CD3 induced IL-2 production by primary human T cells, donor three [6] [µg/mL] | EC50 of anti-CD3 induced IL-2 production by primary human T cells, donor two [6] [µg/mL] | Binder
1 | 0.002 | 0.007 | 0.007 | 0.011 | 0.028 | 0.031 | 0.008 | 0.33 µg/ml and 2.2 nM | > 100 | > 100 |  |  |  |  |  | human monoclonal antibody 11D4 (antibody, V domains shown, IgG2 heavy chain, kappa light chain; allotypes G2(n-) and Km3; Alexa Fluor 647 conjugate was used in the species cross-reactivity FACS) VH: EVQLVESGGGLVQPGGSLRLSCAASGFTFSSYSMNWVRQAPGKGLEWVSYISSSSSTIDYADSVKGRFTISRDNAKNSLYLQMNSLRDEDTAVYYCARESGWYLFDYWGQGTLVTVSS VL: DIQMTQSPSSLSASVGDRVTITCRASQGISSWLAWYQQKPEKAPKSLIYAASSLQSGVPSRFSGSGSGTDFTLTISSLQPEDFATYYCQQYNSYPPTFGGGTKVEIKR
2 |  |  |  |  |  |  |  |  |  |  | 0.034 µg/mL and 0.23 nM | 0.024 | 0.024 | 0.013 | 0.135 | human monoclonal antibody 18D8 (antibody, human IgG2, kappa, V domains shown) VH: EVQLVESGGGLVQPGRSLRLSCAASGFTFDDYAMHWVRQAPGKGLEWVSGISWNSGSIGYADSVKGRFTISRDNAKNSLYLQMNSLRAEDTALYYCAKDQSTADYYFYYGMDVWGQGTTVTVSS VL: EIVVTQSPATLSLSPGERATLSCRASQSVSSYLAWYQQKPGQAPRLLIYDASNRATGIPARFSGSGSGTDFTLTISSLEPEDFAVYYCQQRSNWPTFGQGTKVEIKR

From US20190135932A1 (Pfizer, published 2019)
